Reference: patent US20170008928A1, “NOVEL PEPTIDES AND PEPTIDE DERIVATIVES AND USES THEREOF” (Novo Nordisk A/S, priority 2015, published 2017)
Starred links: 1 amine or outer side, 2 acyl side, 3 side chain; linkers in the order of their positions; H or OH if unused. Non-standard residues stand in square brackets, D forms with d. No end group written: not given here. *: point of attachment. Phe(4-CH2SO3H) = N[C@@H](Cc1ccc(CS(=O)(=O)O)cc1)C(=O)O; sY = N[C@@H](Cc1ccc(OS(=O)(=O)O)cc1)C(=O)O; C18 diacid = O=C(O)CCCCCCCCCCCCCCCCC(=O)*; γGlu = O=C(O)[C@H](CCC(=O)[*:2])N[*:1]; βAsp = O=C(O)[C@H](CC(=O)[*:2])N[*:1]; Met(O2) = CS(=O)(=O)CC[C@H](N)C(=O)O; NMeF = CN[C@@H](Cc1ccccc1)C(=O)O; dNMeD = CN[C@H](CC(=O)O)C(=O)O; Nle = CCCC[C@H](N)C(=O)O; AEEA = NCCOCCOCC(=O)O

T1: human cholecystokinin-1 receptor (human, UniProt P32238 1-428)
T1 sequence (looked up): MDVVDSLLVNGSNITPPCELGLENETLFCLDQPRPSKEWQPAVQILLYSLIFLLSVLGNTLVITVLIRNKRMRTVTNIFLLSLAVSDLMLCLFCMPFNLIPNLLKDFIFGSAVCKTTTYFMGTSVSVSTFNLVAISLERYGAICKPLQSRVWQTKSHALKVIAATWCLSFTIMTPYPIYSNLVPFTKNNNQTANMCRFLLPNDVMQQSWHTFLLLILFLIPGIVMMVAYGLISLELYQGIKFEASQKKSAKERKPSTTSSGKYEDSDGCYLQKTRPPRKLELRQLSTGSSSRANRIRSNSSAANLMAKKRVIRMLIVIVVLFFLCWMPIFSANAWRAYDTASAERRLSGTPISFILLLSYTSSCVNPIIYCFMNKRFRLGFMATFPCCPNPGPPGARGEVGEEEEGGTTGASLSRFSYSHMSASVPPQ

T2: human cholecystokinin-2 receptor (human, UniProt P32239 1-447)
T2 sequence (looked up): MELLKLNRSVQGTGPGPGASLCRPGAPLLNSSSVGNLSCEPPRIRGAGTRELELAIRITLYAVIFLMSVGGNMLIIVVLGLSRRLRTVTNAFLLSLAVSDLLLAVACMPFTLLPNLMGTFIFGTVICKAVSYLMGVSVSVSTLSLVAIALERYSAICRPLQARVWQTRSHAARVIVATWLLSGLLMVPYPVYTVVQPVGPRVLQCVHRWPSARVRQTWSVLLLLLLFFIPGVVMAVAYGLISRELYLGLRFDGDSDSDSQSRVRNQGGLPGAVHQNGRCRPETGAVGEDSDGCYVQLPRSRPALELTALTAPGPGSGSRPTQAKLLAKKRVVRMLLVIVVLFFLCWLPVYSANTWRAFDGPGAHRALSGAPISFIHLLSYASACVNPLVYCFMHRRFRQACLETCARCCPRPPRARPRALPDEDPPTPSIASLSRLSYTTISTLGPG


Legend:
[1] = target: T1, human cholecystokinin-1 receptor; assay: cell-based or functional assay
[2] = target: T2, human cholecystokinin-2 receptor; assay: cell-based or functional assay
[3] = target: T1, human cholecystokinin-1 receptor; assay: SPA competition vs [125I]-CCK-8s, membranes
Protocol: (§1) CCK receptor binding assays were performed in 96-well Optiplates (Cat #6005290, PerkinElmer, Waltham, Mass., USA) in a total volume of 200 μl per well.
(§2) The plates were sealed and incubated in the dark at +22° C. for 2 hours on a IKA MTS plate shaker (IKA-Werke D-79219 Staufen) set at 300 rpm and thereafter centrifuged at 1500 rpm for 10 minutes in a Heraeus Multifuge 3s centrifuge. SPA bead light emission was measured in a TopCount NXT (PerkinElmer) for 2 min/well after a delay of 60 min.

[4] = target: T2, human cholecystokinin-2 receptor; assay: SPA competition vs [125I]-CCK-8s, membranes
Protocol: as §1, §2

Binder	EC50 (CCK-1R) [1]	EC50 (CCK-2R) [2]	IC50 [3]	IC50 [4]
D[Phe(4-CH2SO3H)][Nle]GW[Nle][dNMeD][NMeF]-NH2 (N-terminus assumed; SMILES CCCC[C@H](NC(=O)[C@H](Cc1ccc(CS(=O)(=O)O)cc1)NC(=O)[C@@H](N)CC(=O)O)C(=O)NCC(=O)N[C@@H](Cc1c[nH]c2ccccc12)C(=O)N[C@@H](CCCC)C(=O)N(C)[C@H](CC(=O)O)C(=O)N(C)[C@@H](Cc1ccccc1)C(N)=O, X = Nle or Nal) [Asp-Phe(4-sulfomethyl)-Nle-Gly-Trp-Nle-DMeAsp-MePhe-amide]	0.25 nM	> 1000 nM	0.046 nM	
[sY][Nle]GW[Nle][dNMeD][NMeF]-NH2 (N-terminus assumed; SMILES CCCC[C@H](NC(=O)[C@@H](N)Cc1ccc(OS(=O)(=O)O)cc1)C(=O)NCC(=O)N[C@@H](Cc1c[nH]c2ccccc12)C(=O)N[C@@H](CCCC)C(=O)N(C)[C@H](CC(=O)O)C(=O)N(C)[C@@H](Cc1ccccc1)C(N)=O, X = Nle or Nal) [sTyr-Nle-Gly-Trp-Nle-DMeAsp-MePhe-amide]	0.33 nM	> 1000 nM	0.06 nM	
{C18 diacid-γGlu-AEEA-AEEA}-D[sY]AGW[Nle][dNMeD][NMeF]-NH2 (SMILES CCCC[C@H](NC(=O)[C@H](Cc1c[nH]c2ccccc12)NC(=O)CNC(=O)[C@H](C)NC(=O)[C@H](Cc1ccc(OS(=O)(=O)O)cc1)NC(=O)[C@H](CC(=O)O)NC(=O)COCCOCCNC(=O)COCCOCCNC(=O)CC[C@H](NC(=O)CCCCCCCCCCCCCCCCC(=O)O)C(=O)O)C(=O)N(C)[C@H](CC(=O)O)C(=O)N(C)[C@@H](Cc1ccccc1)C(N)=O, X = Nle or Nal)	0.22 nM	97 nM	0.068 nM	280 nM
{C18 diacid-γGlu-AEEA-AEEA}-D[sY]KGW[Nle][dNMeD][NMeF]-NH2 (X = Nle or Nal)	0.36 nM	310 nM	0.099 nM	
{C18 diacid-γGlu-AEEA-AEEA}-D[sY]SGW[Nle][dNMeD][NMeF]-NH2 (SMILES CCCC[C@H](NC(=O)[C@H](Cc1c[nH]c2ccccc12)NC(=O)CNC(=O)[C@H](CO)NC(=O)[C@H](Cc1ccc(OS(=O)(=O)O)cc1)NC(=O)[C@H](CC(=O)O)NC(=O)COCCOCCNC(=O)COCCOCCNC(=O)CC[C@H](NC(=O)CCCCCCCCCCCCCCCCC(=O)O)C(=O)O)C(=O)N(C)[C@H](CC(=O)O)C(=O)N(C)[C@@H](Cc1ccccc1)C(N)=O, X = Nle or Nal)		940 nM	0.058 nM	4700 nM
{C18 diacid-γGlu-AEEA-AEEA}-E[sY]LGW[Nle][dNMeD]F-NH2 (SMILES CCCC[C@H](NC(=O)[C@H](Cc1c[nH]c2ccccc12)NC(=O)CNC(=O)[C@H](CC(C)C)NC(=O)[C@H](Cc1ccc(OS(=O)(=O)O)cc1)NC(=O)[C@H](CCC(=O)O)NC(=O)COCCOCCNC(=O)COCCOCCNC(=O)CC[C@H](NC(=O)CCCCCCCCCCCCCCCCC(=O)O)C(=O)O)C(=O)N(C)[C@H](CC(=O)O)C(=O)N[C@@H](Cc1ccccc1)C(N)=O, X = Nle or Nal)	0.37 nM	94 nM		480 nM
D[sY]AGW[Nle][dNMeD][NMeF]-NH2 (N-terminus assumed; SMILES CCCC[C@H](NC(=O)[C@H](Cc1c[nH]c2ccccc12)NC(=O)CNC(=O)[C@H](C)NC(=O)[C@H](Cc1ccc(OS(=O)(=O)O)cc1)NC(=O)[C@@H](N)CC(=O)O)C(=O)N(C)[C@H](CC(=O)O)C(=O)N(C)[C@@H](Cc1ccccc1)C(N)=O, X = Nle or Nal) [Asp-sTyr-Ala-Gly-Trp-Nle-DMeAsp-MePhe-amide]	0.16 nM	> 1000 nM	0.055 nM	
D[sY]KGW[Nle][dNMeD][NMeF]-NH2 (N-terminus assumed; SMILES CCCC[C@H](NC(=O)[C@H](Cc1c[nH]c2ccccc12)NC(=O)CNC(=O)[C@H](CCCCN)NC(=O)[C@H](Cc1ccc(OS(=O)(=O)O)cc1)NC(=O)[C@@H](N)CC(=O)O)C(=O)N(C)[C@H](CC(=O)O)C(=O)N(C)[C@@H](Cc1ccccc1)C(N)=O, X = Nle or Nal) [Asp-sTyr-Lys-Gly-Trp-Nle-DMeAsp-MePhe-amide]	0.26 nM	> 1000 nM	0.03 nM	
{C18 diacid-γGlu-AEEA-AEEA}-K[AEEA]D[Phe(4-CH2SO3H)][Nle]GW[Nle][dNMeD][NMeF]-NH2 (X = Nle or Nal)			0.081 nM	7400 nM
[βAsp][Phe(4-CH2SO3H)][Nle]GW[Nle][dNMeD][NMeF]-NH2 (N-terminus assumed; SMILES CCCC[C@H](NC(=O)[C@H](Cc1ccc(CS(=O)(=O)O)cc1)NC(=O)C[C@H](N)C(=O)O)C(=O)NCC(=O)N[C@@H](Cc1c[nH]c2ccccc12)C(=O)N[C@@H](CCCC)C(=O)N(C)[C@H](CC(=O)O)C(=O)N(C)[C@@H](Cc1ccccc1)C(N)=O, X = Nle or Nal) [bAsp-Phe(4-sulfomethyl)-Nle-Gly-Trp-Nle-DMeAsp-MePhe-amide]	0.19 nM	> 1000 nM		2900 nM
{C18 diacid-γGlu-AEEA-AEEA}-D[sY]LGW[Met(O2)][dNMeD][NMeF]-NH2	0.14 nM	> 1000 nM	0.64 nM	
{C18 diacid-γGlu-AEEA-AEEA}-E[sY]LGWQ[dNMeD][NMeF]-NH2	0.22 nM	> 1000 nM	0.097 nM	
E[sY]LGWQ[dNMeD][NMeF]-NH2 [Glu-sTyr-Leu-Gly-Trp-Gln-DMeAsp-MePhe-amide]		> 1000 nM	0.085 nM	
EGPWLEEEEEAYGWMDF (N-terminal pyroglutamic acid (pE, Pyr); C-terminal amide; Tyr non-sulfated)	530 nM		340 nM	
{C18 diacid-γGlu-AEEA-AEEA}-[dD][Phe(4-CH2SO3H)][Nle]GW[Nle][dNMeD][NMeF]-NH2 (X = Nle or Nal)	0.37 nM		0.072 nM	
{C18 diacid-γGlu-AEEA-AEEA}-[βAsp][Phe(4-CH2SO3H)][Nle]GW[Nle][dNMeD][NMeF]-NH2 (SMILES CCCC[C@H](NC(=O)[C@H](Cc1ccc(CS(=O)(=O)O)cc1)NC(=O)C[C@H](NC(=O)COCCOCCNC(=O)COCCOCCNC(=O)CC[C@H](NC(=O)CCCCCCCCCCCCCCCCC(=O)O)C(=O)O)C(=O)O)C(=O)NCC(=O)N[C@@H](Cc1c[nH]c2ccccc12)C(=O)N[C@@H](CCCC)C(=O)N(C)[C@H](CC(=O)O)C(=O)N(C)[C@@H](Cc1ccccc1)C(N)=O, X = Nle or Nal)	0.36 nM		0.063 nM	
{C18 diacid}-GSSGSSD[sY]LGW[Nle][dNMeD][NMeF]-NH2 (SMILES CCCC[C@H](NC(=O)[C@H](Cc1c[nH]c2ccccc12)NC(=O)CNC(=O)[C@H](CC(C)C)NC(=O)[C@H](Cc1ccc(OS(=O)(=O)O)cc1)NC(=O)[C@H](CC(=O)O)NC(=O)[C@H](CO)NC(=O)[C@H](CO)NC(=O)CNC(=O)[C@H](CO)NC(=O)[C@H](CO)NC(=O)CNC(=O)CCCCCCCCCCCCCCCCC(=O)O)C(=O)N(C)[C@H](CC(=O)O)C(=O)N(C)[C@@H](Cc1ccccc1)C(N)=O, X = Nle or Nal; The Gly-Ser-Ser-Gly-Ser-Ser linker is written as part of the chain) [17-Carboxyheptadecanoyl-Gly-Ser-Ser-Gly-Ser-Ser-Asp-sTyr-Leu-Gly-Trp-Nle-DMeAsp-MePhe-amide]	0.61 nM	17 nM		370 nM
{C18 diacid-γGlu-AEEA-AEEA}-D[Phe(4-CH2SO3H)][Nle]GW[Nle][dNMeD][NMeF]-NH2 (X = Nle or Nal)			0.26 nM	
